Literature values as cited in paper PMC9781680.

Target: GLP1 peptide (Homo sapiens) (UniProt P01275)
Chain of UniProt P01275 (P01275 98-127): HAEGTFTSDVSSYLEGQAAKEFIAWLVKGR

- Kd: 0.5 nM
Substance: GLP1R (from UniProt P43220)
